Assay results reported in article PMC4250914 (Scientific Reports, 2014).

Target: T1, His-VPS41 (human, UniProt P49754 1-854)
T1 sequence: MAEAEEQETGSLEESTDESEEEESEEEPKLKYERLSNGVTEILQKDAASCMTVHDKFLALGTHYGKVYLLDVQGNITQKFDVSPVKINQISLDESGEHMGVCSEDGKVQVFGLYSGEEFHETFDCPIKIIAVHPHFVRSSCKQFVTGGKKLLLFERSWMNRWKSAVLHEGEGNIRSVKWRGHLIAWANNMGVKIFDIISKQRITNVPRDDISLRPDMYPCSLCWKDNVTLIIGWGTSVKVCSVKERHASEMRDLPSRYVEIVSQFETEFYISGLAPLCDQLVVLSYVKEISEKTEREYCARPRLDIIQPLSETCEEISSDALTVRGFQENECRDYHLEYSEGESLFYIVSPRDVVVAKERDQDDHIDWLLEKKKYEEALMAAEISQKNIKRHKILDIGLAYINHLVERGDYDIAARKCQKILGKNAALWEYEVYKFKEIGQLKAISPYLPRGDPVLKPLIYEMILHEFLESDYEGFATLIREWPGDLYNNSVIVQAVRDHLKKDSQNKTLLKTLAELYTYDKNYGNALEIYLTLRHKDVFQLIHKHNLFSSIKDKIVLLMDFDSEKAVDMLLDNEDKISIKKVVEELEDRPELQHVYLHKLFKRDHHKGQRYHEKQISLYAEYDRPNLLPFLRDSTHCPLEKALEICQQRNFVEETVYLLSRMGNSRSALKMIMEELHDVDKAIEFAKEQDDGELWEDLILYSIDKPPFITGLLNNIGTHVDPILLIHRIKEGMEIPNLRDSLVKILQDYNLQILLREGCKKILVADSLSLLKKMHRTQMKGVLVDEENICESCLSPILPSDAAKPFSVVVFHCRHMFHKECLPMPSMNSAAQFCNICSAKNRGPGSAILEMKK
Experiment: pull-down

B1: GST-RILP (natural protein)
chain: MEPRRAAPGVPGWGSREAAGSASAAELVYHLAGALGTELQDLARRFGPEAAAGLVPLVVRALELLEQAAVGPAPDSLQVSAQPAEQELRRLREENERLRRELRAGPQEERALLRQLKEVTDRQRDELRAHNRDLRQRGQETEALQEQLQRLLLVNAELRHKLAAMQTQLRAAQDRERERQQPGEAATPQAKERARGQAGRPGHQHGQEPEWATAGAGAPGNPEDPAEAAQQLGRPSEAGQCRFSREEFEQILQERNELKAKVFLLKEELAYFQRELLTDHRVPGLLLEAMKVAVRKQRKKIKAKMLGTPEEAESSEDEAGPWILLSDDKGDHPPPPESKIQSFFGLWYRGKAESSEDETSSPAPSKLGGEEEAQPQSPAPDPPCSALHEHLCLGASAAPEA
B1: binds.
